# T1: glutathione S-transferase (GST)-HDA6 recombinant protein (Arabidopsis thaliana, UniProt Q9FML2 1-471)
# T1 construct: Histone deacetylase HDA6 of Arabidopsis; Printed both as GST-HDA6 and as HDA6-GST; also called HDA6-GST; source: recombinant protein
# T1 sequence (looked up): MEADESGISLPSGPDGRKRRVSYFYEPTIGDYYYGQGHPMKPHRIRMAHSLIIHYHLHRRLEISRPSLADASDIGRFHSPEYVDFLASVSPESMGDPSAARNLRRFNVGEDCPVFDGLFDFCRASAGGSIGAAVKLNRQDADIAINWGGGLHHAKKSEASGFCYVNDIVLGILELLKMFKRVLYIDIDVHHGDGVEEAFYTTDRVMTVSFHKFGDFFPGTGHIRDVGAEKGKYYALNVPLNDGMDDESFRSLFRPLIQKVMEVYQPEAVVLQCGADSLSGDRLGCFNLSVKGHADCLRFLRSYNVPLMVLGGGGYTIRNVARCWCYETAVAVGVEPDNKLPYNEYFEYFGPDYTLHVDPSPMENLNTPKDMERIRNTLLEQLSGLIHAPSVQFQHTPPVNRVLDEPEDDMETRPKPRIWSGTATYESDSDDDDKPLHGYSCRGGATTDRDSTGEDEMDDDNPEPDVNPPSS
# Target: T1, glutathione S-transferase (GST)-HDA6 …
# Assay: pull-down; 2 µg MBP-AS1 on MBP resin, then 2 µg GST-HDA6 for 2 h at 4°C; 20 mM Tris-HCl pH 7.5, 200 mM NaCl, 1 mM EDTA; western blot with anti-GST
# Conditions: both partners purified
binder,measurement,value
"MBP-AS1 recombinant protein (natural protein, Arabidopsis thaliana, UniProt O80931 1-367, looked up, The methods spell MBP out as 'Myelin basic protein'; source: purified recombinant protein) MKERQRWSGEEDALLRAYVRQFGPREWHLVSERMNKPLNRDAKSCLERWKNYLKPGIKKGSLTEEEQRLVIRLQEKHGNKWKKIAAEVPGRTAKRLGKWWEVFKEKQQREEKESNKRVEPIDESKYDRILESFAEKLVKERSNVVPAAAAAATVVMANSNGGFLHSEQQVQPPNPVIPPWLATSNNGNNVVARPPSVTLTLSPSTVAAAAPQPPIPWLQQQQPERAENGPGGLVLGSMMPSCSGSSESVFLSELVECCRELEEGHRAWADHKKEAAWRLRRLELQLESEKTCRQREKMEEIEAKMKALREEQKNAMEKIEGEYREQLVGLRRDAEAKDQKLADQWTSRHIRLTKFLEQQMGCRLDRP",binding result,binds

# — publication PMC3521718, “Histone Deacetylase HDA6 Is Functionally Associated with AS1 in Repression of KNOX Genes in Arabidopsis” (PLoS Genetics, 2012)
